biological target: T1, GABPα-GST (ETS domain);CREB1 B-ZIP domain (mouse?;mouse, UniProt Q00422;Q01147 320-400;269-327, |); assay: PBM; 8 ng:8 ng plasmid; PBM as in Badis et al. 2009 (buffer, salt, pH, temperature not stated); IVT proteins from 2.5-100 ng plasmid; Alexa Fluor 647 anti-GST detection; details: protein: ivt;ivt; tags: GST;none; copies: 1;2; blunt
T1 sequence 1: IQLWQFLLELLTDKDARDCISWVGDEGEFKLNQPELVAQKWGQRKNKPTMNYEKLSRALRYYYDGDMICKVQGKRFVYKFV
T1 sequence 2: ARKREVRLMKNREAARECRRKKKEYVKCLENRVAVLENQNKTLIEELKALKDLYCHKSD

| Binder | binding signal |
| --- | --- |
| GC SNP GGGGAAGT (dsDNA) DNA 1: GTCCTCAAGAGGGGAAGTGACGTCACGACTCAGGTGGGACACACTTTAACACATGGAGAG DNA 2: CTCTCCATGTGTTAAAGTGTGTCCCACCTGAGTCGTGACGTCACTTCCCCTCTTGAGGAC | ~8 fold increase by CREB1 |
| GC SNP GCGGAACT (dsDNA) DNA 1: GTCCTCAAGAGCGGAACTGACGTCACGACTCAGGTGGGACACACTTTAACACATGGAGAG DNA 2: CTCTCCATGTGTTAAAGTGTGTCCCACCTGAGTCGTGACGTCAGTTCCGCTCTTGAGGAC | 8 fold increase by CREB1 |
| GC SNP GCGGAAA(T) (dsDNA) DNA 1: GTCCTCAAGAGCGGAAATGACGTCACGACTCAGGTGGGACACACTTTAACACATGGAGAG DNA 2: CTCTCCATGTGTTAAAGTGTGTCCCACCTGAGTCGTGACGTCATTTCCGCTCTTGAGGAC | 16 fold increase by CREB1 |

biological target: T1, GABPα-GST (ETS domain);CREB1 B-ZIP …; assay: as above; details: protein: ivt;ivt; tags: GST;none; copies: 1;2; blunt; remark: another data set of the same source

| Binder | binding signal |
| --- | --- |
| CC SNP CCGGAAA(T) (dsDNA) DNA 1: GTCCTCAAGACCGGAAATGACGTCACGACTCAGGTGGGACACACTTTAACACATGGAGAG DNA 2: CTCTCCATGTGTTAAAGTGTGTCCCACCTGAGTCGTGACGTCATTTCCGGTCTTGAGGAC | 2 fold increase by CREB1 |
| CC SNP TCGGAAGT (dsDNA) DNA 1: GTCCTCAAGATCGGAAGTGACGTCACGACTCAGGTGGGACACACTTTAACACATGGAGAG DNA 2: CTCTCCATGTGTTAAAGTGTGTCCCACCTGAGTCGTGACGTCACTTCCGATCTTGAGGAC | < 20 fold increase by CREB1 (up to) |
| CC SNP CGGGAAGT (dsDNA) DNA 1: GTCCTCAAGACGGGAAGTGACGTCACGACTCAGGTGGGACACACTTTAACACATGGAGAG DNA 2: CTCTCCATGTGTTAAAGTGTGTCCCACCTGAGTCGTGACGTCACTTCCCGTCTTGAGGAC | ~16 fold increase by CREB1 |
| CC SNP CCGGACGT (dsDNA) DNA 1: GTCCTCAAGACCGGACGTGACGTCACGACTCAGGTGGGACACACTTTAACACATGGAGAG DNA 2: CTCTCCATGTGTTAAAGTGTGTCCCACCTGAGTCGTGACGTCACGTCCGGTCTTGAGGAC | < 20 fold increase by CREB1 (up to; abstract up to 23, most enhanced SNP) |
| CC SNP CCGGAACT (dsDNA) DNA 1: GTCCTCAAGACCGGAACTGACGTCACGACTCAGGTGGGACACACTTTAACACATGGAGAG DNA 2: CTCTCCATGTGTTAAAGTGTGTCCCACCTGAGTCGTGACGTCAGTTCCGGTCTTGAGGAC | 20 fold increase by CREB1 |

biological target: T2, GABPα-GST (ETS domain) (UniProt Q00422 320-400); assay: PBM; GABPα-GST alone; PBM as in Badis et al. 2009 (buffer, salt, pH, temperature not stated); IVT proteins from 2.5-100 ng plasmid; Alexa Fluor 647 anti-GST detection; details: protein: ivt; tags: GST; blunt
T2 sequence: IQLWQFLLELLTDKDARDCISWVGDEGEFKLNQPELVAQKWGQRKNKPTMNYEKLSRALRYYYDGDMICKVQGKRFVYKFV

| Binder | binding signal |
| --- | --- |
| ETS-CRE GC motif probe (dsDNA) DNA 1: GTCCTCAAGAGCGGAAGTGACGTCACGACTCAGGTGGGACACACTTTAACACATGGAGAG DNA 2: CTCTCCATGTGTTAAAGTGTGTCCCACCTGAGTCGTGACGTCACTTCCGCTCTTGAGGAC | 4 fold weaker than N1 |

Reference: publication PMC4555227, “GABPα Binding to Overlapping ETS and CRE DNA Motifs Is Enhanced by CREB1: Custom DNA Microarrays”
